The test system of assay [1] is TGFβ1-stimulated HSCs. Nature of the assay: Inhibition of MMP2 secretion by TGFβ1-stimulated HSCs (IC50). It is filed as cell-based, human. As to the method: HSCs (5300, ScienCell) were cultured in stellate cells complete media (5301, ScienCell) on poly-L-lysine-coated plates (2 μg/cm2, 0403, ScienCell).
HSCs were stimulated with TGFβ1(5 ng m1^−1, 24 h) in the presence of IgG (4 μg ml^−1) and varying concentrations of X209 (4 μg ml^−1 to 61 pg ml^−1; 4-fold dilutions). Supernatants were collected and assayed for the amount of secreted MMP2. Dose-response curves were generated by plotting the logarithm of X209 tested concentration (pM) versus corresponding percent inhibition values using least squares (ordinary) fit. The IC50 value was calculated using log(inhibitor) versus normalized response-variable slope equation.
The levels of IL-11 and MMP-2 in equal volumes of cell culture media were quantified using Human IL-11 Quantikine ELISA kit (D1100, R&D Systems) and Total MMP-2 Quantikine ELISA kit (MMP200, R&D Systems), respectively. Total secreted collagen in the cell culture supernatant was quantified using Sirius red collagen detection kit (9062, Chondrex). Total hydroxyproline content in the livers was measured using Quickzyme Total Collagen assay kit (Quickzyme Biosciences). Mouse serum levels of alanine aminotransferease (ALT), cholesterol, and triglycerides were measured using Alanine Transaminase Activity Assay Kit (ab105134, abcam), Cholesterol Assay Kit (ab65390, abcam), and Triglyceride Assay Kit (ab65336, abcam), respectively. […]

The test system of assay [2] is HFMCD-fed mice. Kind of assay: HFMCD diet model of cachexia-related weight loss. In kind it is in vivo, mouse. The text has this: High fat methionine choline deficient diet (HFMCD) was used to establish cachexia-like metabolic disorder. In order to establish cachexia weight loss and lean mass loss, C57BL/6N mice were fed with methionine and choline deficient (HFMCD) diet supplemented with 60 kcal % fat (A06071301B, Research Diets).
Five-week old male mice were fed a methionine- and choline-deficient (MCD) diet with 60 kcal % fat (A06071301B, Research Diets), designated a high fat MCD (HFMCD) diet, which causes more severe NASH than an MCD diet alone. Control mice were fed with normal chow (NC; Specialty Feeds). Mice were intraperitoneally injected twice per week with 10 mg/kg of anti-IL-11 antibody or anti-IL-11 RA antibody, or identical concentration of IgG isotype control one week after they had received HFMCD for the same treatment duration. Body weight was measured weekly.
To investigate further the effect of inhibition of IL-11-mediated signalling with respect to cachexia, a range of doses of anti-IL-11 therapy were studied in the MCD model. Five-week old male mice were fed on the HFMCD or NC diet as before for one week to induce cachexia, resulting in a ˜15% loss in body weight in MCD mice. After the initial week, mice were intraperitoneally injected twice per week with 0.5, 1, 5 or 10 mg/kg of anti-IL-11 or anti-IL-11 RA antibody. Three antibodies were studied: two anti-IL-11 ((1) and (2)), and one anti-IL-11 RA. 10 mg/kg of IgG isotype antibody was used as a control.
Body weight and food consumption were measured weekly. For food consumption, average food intake was measured (g/mouse/week) in food hoppers from cages (n=3 mice per cage).

The test system of assay [3] is mice with folate-induced kidney injury. Nature of the assay: Weight loss after folate-induced acute kidney injury. It is filed as in vivo, mouse. As to the method: Kidney injury was induced by IP injection of folic acid (180 mg/kg) in vehicle (0.3M NaHCO3) to 10-week old male mice; control mice were administered vehicle alone. Animals were sacrificed 28 days post-injection. Mice were intraperitoneally injected every 3 days with 20 mg/kg of anti-IL-11 antibody, anti-IL-11 RA antibody or identical concentration of IgG isotype control starting from 1 hour before folic acid administration until the mice were sacrificed.
In a second experiment kidney injury was induced as before by IP injection of folic acid. Mice were only treated with anti-IL-11 antibody or IgG control from 21 days after kidney injury. Animal weight was assessed before and after antibody treatment.

Setting [4] is: 20 mg/kg every 3 days from 1 hour before folic acid.
Setting [5] is: 0.5, 1, 5 or 10 mg/kg twice per week.

Read-outs that look alike come from different tables or passages of the source.

B1: X203: mouse anti-mouse IL-11 IgG (IgG1κ), neutralising; VH SEQ ID NO:22, VL SEQ ID NO:23 (antibody, V domains shown)
VH: EVQLQQSGPELVKPGASVKIPCKASGYTFTDYNMDWVKQSHGKSLEWIGDINPHNGGPIYNQKFTGKATLTVDKSSSTAYMELRSLTSEDTAVYYCARGELGHWYFDVWGTGTTVTVSS
VL: DIVLTQSPASLAVSLGQRATISCRASKSVSTSGYSYIHWYQQKPGQPPKLLIYLASNLDSGVPARFSGSGSGTDFTLNIHPVEEEDAATYYCQHSRDLPPTFGGGTKLEIK
modifications: Enx203 VH; Enx203 VL
The term IC50 denotes the midpoint of a concentration-inhibition curve. Turning to B1, in assay [1] (read-out: IC50 for HSC activation), the IC50 came out at 0.0401 nM. Further, the body weight result was “quickly regained weight and returned to normal, or near-normal, weight by 5 weeks later” in assay [2] (10 mg/kg twice per week from week 1, listed as anti-IL-11, 10 mg/kg); “returned to normal, or near normal, weight by 3 weeks later” in assay [3] (setting [4]); “started to regain weight upon initiation of treatment” in assay [3] (treated from 21 days after kidney injury).

B2: X209: mouse anti-mouse IL-11Rα IgG (IgG1κ), neutralising; VH SEQ ID NO:24, VL SEQ ID NO:25 (antibody, V domains shown)
VH: QVQLQQPGAELVRPGSSVKLSCKASGYTFTNYWMHWLKQRPVQGLEWIGNIGPSDSKTHYNQKFKDKATLTVDKSSSTAYMQLNSLTSEDSAVYYCARGDYVLFTYWGQGTLVTVSA
VL: DIVLTQSPATLSLSPGERATLSCRASQSISNNLHWYQQKSHEAPRLLIKYASQSISGIPARFSGSGSGTDFTLSFSSLETEDFAVYFCQQSYSWPLTFGQGTKLEIK
modifications: Enx209 VH; Enx209 VL
B2: the IC50 in assay [1] (TGFβ1 5 ng/ml, 24 h, 4 μg/ml to 61 pg/ml, 4-fold dilutions, read-out: IC50, blocking MMP2 secretion from HSCs) came out at 0.0058 nM. Besides, the body weight entry was “quickly regained weight and returned to normal, or near-normal, weight by 5 weeks later” in assay [2] (10 mg/kg twice per week from week 1, listed as anti-IL-11 RA, 10 mg/kg); “returned to normal or near-normal weight” in assay [2] (10 mg/kg twice per week from week 1, listed as anti-IL-11Rα, 10 mg/kg); “most effective in reversing weight loss” in assay [2] (setting [5]); “returned to normal, or near normal, weight by 3 weeks later” in assay [3] (setting [4]). In assay [2] (setting [5]), the food consumption result is “greatest increase in food intake”.

Source of the values: patent US11813311B2, “Treatment and prevention of metabolic diseases” (Singapore Health Services PTE LTD., priority 2019, dated 2023).
